Laboratory results published in paper PMC5607582.

Target: trimeric H5-S·Tag (ectodomain of H5 hemagglutinin of A/duck/Viet Nam/TG24-01/2005 (H5N1) fused to GCN4-pII and S·Tag) (influenza A virus A/duck/Viet Nam/TG24-01/2005 (H5N1) | not stated | bovine)

Row | Substance | hemagglutination titer (HAU) of plant extract after co-expression in plants
1 | S·Protein-pII (S·Protein fused to the trimerization domain GCN4-pII) (from UniProt P61823 47-150) | 0 HAU
2 | S·Protein-TP (S·Protein of bovine ribonuclease A fused to the tailpiece of mouse IgM) (from UniProt P61823 47-150) | 256 HAU
3 | wild-type S·Protein (bovine pancreatic ribonuclease A residues 21-124) (from UniProt P61823 47-150) (domain or fragment) | 4 HAU
4 | S·Protein-GCN4 (S·Protein fused to the dimerization domain GCN4 wild-type) (from UniProt P61823 47-150) | 2 HAU
